Experimental data from paper PMC7353053, “Characterisation of the Effect of the Spatial Organisation of Hemicellulases on the Hydrolysis of Plant Biomass Polymer” (International Journal of Molecular Sciences, 2020).
Each block holds one molecule with its values, some of them ahead of it.

Key:
[1] = biological target: His-In-NpXyn11A-BhXyl43-Jo (not stated | Neocallimastix patriciarum | Bacillus halodurans C-125); test: SAXS; proteins in 50 mM phosphate pH 7, around 10 mg/mL; direct injection and online SEC-HPLC curves merged; fit to the dimer of PDB 1YRZ or rigid body modelling; dimer to monomers
[2] = biological target: His-BhXyl43 (Bacillus halodurans C-125); test: as above
[3] = biological target: His-In-NpXyn11A-Jo-BhXyl43 (not stated | Neocallimastix patriciarum | Bacillus halodurans C-125); test: as above
purified protein = substrate: O=[N+]([O-])c1ccc(O[C@@H]2OC[C@@H](O)[C@H](O)[C@H]2O)cc1; test: purified protein; format: biochemical, Halalkalibacterium halodurans; settings: 50 mM Tris-HCl pH 8, 1 mg/mL BSA, 45 °C, 10 min, 0.1 to 18 mM substrate

Molecule: His-In-NpXyn11A-Jo-BhXyl43 (complex)
stoichiometry N [3]: 2

B1: His-Jo-BhXyl43 (Halalkalibacterium halodurans C-125) (protein)
chain: MVNRIQNPILPGFHPDPSIVRVGDDYYIATSTFEWFPGVRIHHSRDLKHWRFVSSPLTRTSQLDMKGNMNSGGIWAPCLSYHDGTFYLIYTDVKQWHGAFKDAHNYLVTAQNIEGPWSDPIYLNSSGFDPSLFHDDDGRKWLVNMIWDYRKGNHPFAGIILQEYSEAEQKLVGPVKNIYKGTDIQLTEGPHLYKKDGYYYLLVAEGGTEYEHAATLARSQSIDGPYETDPSYPLVTSTGQPELALQKAGHGSLVETQNGEWYLAHLCGRPLKGKYCTLGRETAIQKVNWTEDGWLRIEDGGNHPLREVTAPDLPEHPFEKEPELDDFDAPQLHHQWNTLRIPADPSWCSLEERPGHLRLRGMESLTSVHSQSLVARRQQSFHCEVETKLEYQPESFQHMAGLVIYYDTEDHVYLHVTWHEEKGKCLQIIQTKGGNYDELLASPIPLAEEKAVYLKGRIHRETMHLYFKQEGEAEWQPVGPTIDVTHMSDDSAKQVRFTGTFVGMATQDLSGTKKPADFDYFRYKELDQ
notes: N-terminal His6 tag and Jo module (about 10 kDa, isopeptide-forming fragment) fused to the N-terminus of BhXyl43 (63 kDa); expressed in E. coli BL21(DE3), IMAC purified
Km (purified protein): 6.01 ± 0.41 mM | kcat (purified protein): 18.1 ± 1.17 s⁻¹ | kcat/Km (purified protein): 3015 ± 10.9 M⁻¹ s⁻¹

The next lines start with the values.

stoichiometry N [1]: 2
Molecule: His-In-NpXyn11A-BhXyl43-Jo (complex)

stoichiometry N [2]: 2
Molecule: His-BhXyl43 (enzyme)
